Measurements as given in US20190256588A1 (BEIJING HANMI PHARM, published 2019).

Tests used:
recombinant human IL-17A = target: T1, recombinant human IL-17A (human, UniProt Q16552 24-155); test: ELISA, recombinant human IL-17A coated on the plate, HRP anti-human IgG, OD450nm
T1 construct: also called IL-17A antigen
Protocol: (§1) Recombinant human IL-17A, monkey IL-17A, rat IL-17A and mouse IL-17A (all purchased from Sino Biological Inc.), were coated on a 96-well high-absorbing ELISA plate with a carbonate buffer solution with pH 9.6, the coating concentration was […], the coating amount was 100 μL per well, and the coating was carried out at 4° C. overnight. The plate was washed five times with PBST and blocked with 300 μL/well of PBST containing 1% BSA, and then incubated at 25° C. for 1 hour. The plate was washed five times with PBST. […] The plate was washed five times with PBST. Then, horseradish peroxidase-labeled anti-human IgG antibody (Chemicon, Catalog Number AP309P) 1:2000 diluted in PBST containing 1% BSA was added, 100 μL per well, incubated at 25° C. for 1 hour. The plate was washed five times with PBST. 100 μL/well of colorimetric substrate TMB was added and incubated at room temperature for 10 minutes. Color development was terminated by adding 100 μL/well of 1 M H₂SO₄. The absorbance at 450 nm was read on a microplate reader.

recombinant human IL-6 = recombinant human IL-6 (human, UniProt P05231 30-212); test: ELISA, cytokine coated on plate at 1 µg/mL
Protocol: (§2) Recombinant human IL-17A, IL-17B, IL-17C, IL-17D, IL-17E, IL-17F, IL-1, IL-2, IL-6, IL-8, IL-21, IL-22, IL-23, IFN-g and TNFα (purchased from Sino Biological Inc. or R&D systems) were coated on a 96-well high-absorbing ELISA plate with a carbonate buffer solution with pH 9.6, the coating concentration was 1 μg/mL, the coating amount was 100 μL per well, and the coating was carried ax 4° C. out overnight. The plate was washed five times with PBST and blocked with 300 μL/well of PBST containing 1% BSA and incubated at 25° C. for 1 hour. The plate was washed five times with PBST. […] The plate was washed five times with PBST. Then, horseradish peroxidase-labeled anti-human IgG antibody (Chemicon, Catalog Number AP309P) 1:2000 diluted in PBST containing 1% BSA was added, 100 μL was added to each well, incubated at 25° C. for 1 hour. The plate was washed five times with PBST. 100 μL/well of colorimetric substrate TMB was added and incubated at room temperature for 10 minutes. Color development was terminated by adding 100 μL/well of 1 M H₂SO₄. The absorbance at 450 nm was read on a microplate reader.
(§3) Recombinant human IL-17A, IL-17B, IL-17C, IL-17D, IL-17E, IL-17F, IL-1, IL-2, IL-6, IL-8, IL-21, IL-22, IL-23, IFN-g and TNFα (purchased from Sino Biological Inc. or R&D systems) were coated on a 96-well high-absorbing ELISA plate with a carbonate buffer solution with pH 9.6, the coating concentration was 1 μg/mL, the coating amount was 100 μL per well, and the coating was carried at 4° C. out overnight. Washed five times with PBST. Blocked with 300 μL/well of PBST containing 1% BSA and incubated at 25° C. for 1 hour. Washed five times with PBST.

recombinant human IL-17F = target: T2, recombinant human IL-17F (human, UniProt Q96PD4 31-163); test: ELISA, cytokine coated on plate at 1 µg/mL
T2 sequence (looked up): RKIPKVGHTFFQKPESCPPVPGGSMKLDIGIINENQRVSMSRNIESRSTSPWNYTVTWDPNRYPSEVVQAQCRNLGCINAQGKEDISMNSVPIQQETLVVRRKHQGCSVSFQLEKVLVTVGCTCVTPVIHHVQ
Protocol: as §2, §3

recombinant human IL-21 = recombinant human IL-21 (human, UniProt Q9HBE4 32-162, limits assumed); test: ELISA, cytokine coated on plate at 1 µg/mL
Protocol: as §2, §3

recombinant human IL-22 = target: T3, recombinant human IL-22 (human, UniProt Q9GZX6 34-179); test: ELISA, cytokine coated on plate at 1 µg/mL
T3 sequence (looked up): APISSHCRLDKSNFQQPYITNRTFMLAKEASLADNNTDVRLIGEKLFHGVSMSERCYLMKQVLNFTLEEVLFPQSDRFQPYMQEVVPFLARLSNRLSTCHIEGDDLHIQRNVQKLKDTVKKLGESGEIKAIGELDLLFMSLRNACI
Protocol: as §2, §3

recombinant human IL-2 = recombinant human IL-2 (human, UniProt P60568 21-153); test: ELISA, cytokine coated on plate at 1 µg/mL
Protocol: as §2, §3

recombinant human IL-8 = recombinant human IL-8 (human, UniProt P10145 28-99, limits assumed); test: ELISA, cytokine coated on plate at 1 µg/mL
Protocol: as §2, §3

recombinant human IL-17D = target: T4, recombinant human IL-17D (human, UniProt Q8TAD2 16-202, limits assumed); test: ELISA, cytokine coated on plate at 1 µg/mL
T4 sequence (looked up): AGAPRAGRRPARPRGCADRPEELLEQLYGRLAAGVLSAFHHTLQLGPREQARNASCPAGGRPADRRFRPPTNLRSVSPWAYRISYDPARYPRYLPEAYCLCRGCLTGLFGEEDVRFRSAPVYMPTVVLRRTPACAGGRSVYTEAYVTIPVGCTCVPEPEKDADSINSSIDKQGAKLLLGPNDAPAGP
Protocol: as §2, §3

recombinant human IFN-g = target: T5, recombinant human IFN-g (human, UniProt P01579 24-166, limits assumed); test: ELISA, cytokine coated on plate at 1 µg/mL
T5 sequence (looked up): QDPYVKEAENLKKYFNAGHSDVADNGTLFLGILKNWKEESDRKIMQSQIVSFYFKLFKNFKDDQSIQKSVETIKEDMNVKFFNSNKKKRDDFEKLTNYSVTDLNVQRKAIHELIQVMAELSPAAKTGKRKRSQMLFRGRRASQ
Protocol: as §2, §3

recombinant human IL-17B = target: T6, recombinant human IL-17B (human, UniProt Q9UHF5 21-180); test: ELISA, cytokine coated on plate at 1 µg/mL
T6 sequence (looked up): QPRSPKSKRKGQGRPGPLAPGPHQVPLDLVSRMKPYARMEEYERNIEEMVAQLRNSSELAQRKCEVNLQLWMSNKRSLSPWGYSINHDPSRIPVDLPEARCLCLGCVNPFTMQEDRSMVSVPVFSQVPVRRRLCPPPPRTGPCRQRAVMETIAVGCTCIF
Protocol: as §2, §3

recombinant human TNFα = recombinant human TNFα (human, UniProt P01375 77-233); test: ELISA, cytokine coated on plate at 1 µg/mL
Protocol: as §2, §3

[1] = target: recombinant monkey IL-17A (monkey); test: ELISA, recombinant monkey IL-17A coated on the plate, HRP anti-human IgG, OD450nm
Protocol: as §1

Sequence of recombinant human TNFα (P01375 77-233 limits assumed): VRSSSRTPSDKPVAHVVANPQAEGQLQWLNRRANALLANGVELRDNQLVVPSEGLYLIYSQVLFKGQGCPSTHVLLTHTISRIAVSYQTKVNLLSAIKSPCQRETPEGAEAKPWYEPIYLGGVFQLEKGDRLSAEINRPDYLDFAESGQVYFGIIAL
Sequence of recombinant human IL-8 (P10145 28-99 limits assumed): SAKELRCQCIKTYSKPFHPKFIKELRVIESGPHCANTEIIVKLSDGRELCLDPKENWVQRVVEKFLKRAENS
Sequence of recombinant human IL-2 (P60568 21-153 limits assumed): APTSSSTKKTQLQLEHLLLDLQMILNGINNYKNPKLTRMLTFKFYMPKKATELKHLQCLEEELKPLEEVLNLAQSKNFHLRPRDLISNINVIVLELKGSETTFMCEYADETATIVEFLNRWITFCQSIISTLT
Sequence of recombinant human IL-21 (Q9HBE4 32-162 limits assumed): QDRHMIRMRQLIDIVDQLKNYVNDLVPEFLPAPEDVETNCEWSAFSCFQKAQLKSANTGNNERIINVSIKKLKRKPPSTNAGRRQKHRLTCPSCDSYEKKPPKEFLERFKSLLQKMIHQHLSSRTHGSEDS
Sequence of recombinant human IL-6 (P05231 30-212 limits assumed): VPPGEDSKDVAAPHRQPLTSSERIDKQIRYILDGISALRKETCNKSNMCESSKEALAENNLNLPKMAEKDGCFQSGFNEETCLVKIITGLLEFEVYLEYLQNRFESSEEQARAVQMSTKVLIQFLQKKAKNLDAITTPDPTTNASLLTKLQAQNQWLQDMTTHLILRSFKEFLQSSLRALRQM
T1 sequence (Q16552 24-155 limits assumed): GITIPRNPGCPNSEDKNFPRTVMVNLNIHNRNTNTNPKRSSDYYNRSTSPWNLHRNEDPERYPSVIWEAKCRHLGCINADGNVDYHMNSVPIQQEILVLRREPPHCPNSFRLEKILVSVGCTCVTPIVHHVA

B1: anti-human IL-17A chimeric monoclonal antibody (antibody, human IgG1, kappa, V domains shown)
VH: DVQVQESGPGLVKPSQSLSLTCTVTGNSITSYYAWNWIRQFPGNKLEWMGYITYSGTTSYNPSLKSRISITRDTSKNQFFLQLNSVTTEDTATYYCAREEYDDIYAVDYWGQGTSVTVSS
VL: IIVMTQTPLSLPVSLGDQASISCRSSQSLVHSNGNTYLHWYLQKPGQSPKLLIYKVYNRFSGVPDRFSGSGSGTDFTLKISRVEAEDLGVYFCSQSTHFPTFGGGTKLEIKR
notes: expressed in 293F cells; also called Anti-human IL-17A Chimeric Antibody; chimeric anti-human IL-17A monoclonal antibody
EC50 (recombinant human IL-17A): 0.07 nM
binding result (recombinant human IL-6): no binding
binding result (recombinant human IL-17F): no binding
binding result (recombinant human IL-21): no binding
binding result (recombinant human IL-22): no binding
binding result (recombinant human IL-2): no binding
binding result (recombinant human IL-8): no binding
binding result (recombinant human IL-17D): no binding
binding result (recombinant human IFN-g): no binding
binding result (recombinant human IL-17B): no binding
binding result (recombinant human TNFα): no binding
EC50 [1]: 0.09 nM
